Assay: yeast display, Sf9 membrane polyspecificity reagent, FACS + sequencing; frameworks hold sequencing errors
How it was run: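 A synthetic nanobody library was expressed on Saccharomyces cerevisiae BJ5465 by galactose induction for 36–48 hours. The library was stained for 1 hour at 4 °C with 10% biotinylated, detergent-solubilized Sf9 membrane reagent and enriched with streptavidin microbeads before FACS. Low and high (top ~1%) gates were set on anti-HA fluorescence for expression and streptavidin fluorescence for reagent binding, and each polyreactivity label reflects the gate of origin.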

| Sequence | polyreactivity (PSR sort gate) |
| --- | --- |
| QVQLVESGGGLVQAGGSLRLSCAASGSIFRGYAMGWYRQAPGKEREFVASITWSAGRTRYADSVKGRFTISRDNAKNTVYLQMNSLKPEDTAVYYCAADHGSYWPRYDYWGQGTQVTVSS | high polyreactivity |
| QVQLVESGGGLVQAGGSLRLSCAASGSIFRGYAMGWYRQAPGKERELVAGIRGSDGSTYYADSVKGRFTISRDNAKNTVYLQMNSLKPEDTAVYYCAADRRYLDRDKHRYGYWGQGTQVTVSS | low polyreactivity |
| QVQLVESGGGLVQAGGSLRLSCAASGSIFRHNAMGGYRQSPGKERELVAAISRRASSTYYADSVKGRFTISRDNAKNTVYLQLNSLKPEDTAVYYCAVVPSTTYHAYDYWGQGTQVTVSS | high polyreactivity |
| QVQLVESGGGLVQAGGSLRLSCAASGSIFRIYAMGWYRQAPGKERELVAAITGRGGSTYYADSVKGRFTISRDNAKNTVYLQMNSLKPEDTAVYYCAAEERYAYRYDYWGQGTQVTVSS | high polyreactivity |
| QVQLVESGGGLVQAGGSLRLSCAASGSIFRIYAMGWYRQAPGKEREWVAAINSGGITNYADSVKGRFTISRDNAKNTVYLQMNSLKPEDTAVYYCNARQGVYGLYLRAYPYEYWGQATQVTVSS | low polyreactivity |
| QVQLVESGGGLVQAGGSLRLSCAASGSIFRIYVMGWYRQAPGKERELVAAINSGGRTKYADSVKGRFTISRDNAKNTVYLLMNSLKPDDTAVYYCAAAFLYRKGVSSLYDSWGQGTQVTVSS | high polyreactivity |
| QVQLVESGGGLVQAGGSLRLSCAASGSIFRIYVMGWYRQAPGKERELVAAITNDGSTSYADSVKGRFTISRDNAKNTVYLQMNSLKPEDTAVYYCNAYRRRATYNGDYWGQGTQVTVSS | high polyreactivity |
| QVQLVESGGGLVQAGGSLRLSCAASGSIFRKNAMGWYREAPGKERELVATISGGGSTTYADSVKGRFTISRDNAKNTLYLQMNSLKPEDTAVYYCAARSTWFQIRYGYWGQGNQVTVSS | high polyreactivity |
| QVQLVESGGGLVQAGGSLRLSCAASGSIFRKNAMGWYRPAPGKERELVATISGGGSTTYADSVKGRFTISRDNAKNTVYVHMNSLKPEDTAVYYCAARSTWFQLRYGYGGQGTQVTVSS | high polyreactivity |
| QVQLVESGGGLVQAGGSLRLSCAASGSIFRKYAMGWYRQAPGKERELVAAITGSGGSTYYADSVKGRFTISRDNAKNTVYLQMNSLKPEDTAVYYCAAPFGWRPLPISKVTSDYWGQGTQVTVSS | high polyreactivity |
| QVQLVESGGGLVQAGGSLRLSCAASGSIFRKYTMGWYRQAPGKERELVAAINTNGGSTYYADSVKGRFTISRDNAKNTVYLQMNSLKPEDTAVYYCRAWAQNQYNYWGQGTQVTVSS | high polyreactivity |
| QVQLVESGGGLVQAGGSLRLSCAASGSIFRLNTMGWYRQAPGKERELVAAITRSGSTNYADSVKGRFTISRDNAMNTVYLQMNSLKPEDTAVYYCAARYPREAAYGFEYWGQGTQVTVSS | high polyreactivity |
| QVQLVESGGGLVQAGGSLRLSCAASGSIFRLYAMGWYRQAPGKERELVAAITGRGTSTYYADSVKGRFTISRDNAKNTVYLQMNSLKPEDTAVYYCAARLFKNSGTTYDRYGYWGQGTQVTVSS | high polyreactivity |
| QVQLVESGGGLVQAGGSLRLSCAASGSIFRNYAMGWSRPATGKERELVASIRYSGGRTNYADSVKGRFTISRDNAKNTVYLQMNSLKPEDTAVYYCAADPGYGWQRAYYYWGQGTQVTVSS | high polyreactivity |
| QVQLVESGGGLVQAGGSLRLSCAASGSIFRNYAMGWYRKAPGKERELVADSTYYADSVKGRFTISRDNAKNTVYLQMNSLKPEDTAVYYCNTVYATRYDYWGQGTQVTVSS | high polyreactivity |
| QVQLVESGGGLVQAGGSLRLSCAASGSIFRNYAMGWYRQAPGKERELVSAITRGGGSTYYADSVKARFTISRDNAKNTVYLQMNSLKPEETAVYYCAAVRVFQYKYDRFNYWGQGTQVTVSS | high polyreactivity |
| QVQLVESGGGLVQAGGSLRLSCAASGSIFRPNALGWYRQAPGKERELVAAITWSGDSTYYADSVKGRFTISRDNAKNTVYLQINSLKPEDTAVYYCAVVSYKVTESGIRMYYWGQGTQVTVSS | low polyreactivity |
| QVQLVESGGGLVQAGGSLRLSCAASGSIFRPNAMGWYRQAPGKERELVAAINTSDDSTYYADSVKGRFTISRDNAKNTVYLQMNSLKPEDTAVYYCASDGVVPGRFFWPAHEYDYWGQGTQVTVSS | low polyreactivity |
| QVQLVESGGGLVQAGGSLRLSCAASGSIFRPNTMGWYRQAPGKERELVAAIRYRGGGTYYADSVKGRFTISRDNAKNTVYLQMNSLKPEDTAVYFCNAPRRNWSYDYWGQGTQVTVSS | high polyreactivity |
| QVQLVESGGGLVQAGGSLRLSCAASGSIFRPYAMGWYRQAPGKERELVAAISVRGGRSYYADSVKGRFTISRDNAKNTVYLQMNSLKPEDTAVYYCNTVRQLGYTGYDYWGQGTQVTVSS | high polyreactivity |
| QVQLVESGGGLVQAGGSLRLSCAASGSIFRPYAMGWYRQAPGKERELVAGISLRGGSTSYADSVKGRFTISRDNAKNTVYLQMNSLKPEDTAVYYCAASYWWKGDSTYGYWGQGTQVTVSS | high polyreactivity |
| QVQLVESGGGLVQAGGSLRLSCAASGSIFRQNVMGWYRQAPGKERELVAAISRNGGSTYYADSVKGRFTISRDNAKNTVYFQMNSLKPEDTGVYYCAARGFRRYDYWGQGTQVTVSS | high polyreactivity |

| Sequence | polyreactivity (PSR sort gate) |
| --- | --- |
| QVQLVESGGGLVQAGGSLRLSCAASGSIFRQYAMGWYRQAPGKERELVAAIRSGGSTYYADSVKGRFTISRDNAKNTVYLQMNSLKPEDTAVYYCATRYHWSGYYYWGQGTQVTVSS | high polyreactivity |
| QVQLVESGGGLVQAGGSLRLSCAASGSIFRRFAMGWYRQAPGKEREFVAAISRSSDNTSYADSVKGRFTISRDNAKNTVYLQMNSLKPEDTAVYYCNADASWYGYWYYYWGQGTQVTVSS | low polyreactivity |
| QVQLVESGGGLVQAGGSLRLSCAASGSIFRRNAMGWYRQAPGKERELVAAISQSGGSTYYADSVKGRFTISRDNAKNTVYLQMNSLKPEDTAVYYCAAKAHTVGGYAYYHTSTYYWGQGTQVTVSS | high polyreactivity |
| QVQLVESGGGLVQAGGSLRLSCAASGSIFRRNAMGWYRQAPGKERELVATITSDGSTDYADSVKGRFTISRDNAKNTVYLQMNSLKPEDTAVYYCAADRGVYDPGDYWGQGTQVTVSS | low polyreactivity |
| QVQLVESGGGLVQAGGSLRLSCAASGSIFRRNAMGWYRQAPGKERELVAVITRSGGSTYYADSVKGRFTISRDNAKTTVDLQMNSLKPEDTAVYYCDASRSSTRSFDYWGQGTQVTVSS | high polyreactivity |
| QVQLVESGGGLVQAGGSLRLSCAASGSIFRRNGMGWYRQAPGKERELVAAITYRGGNTNYADSVKGRFTISRDNAKNTVYFQMNRLKPEDTAVYYCAADTYGWWYAFEYWGQGTQVKVSS | low polyreactivity |
| QVQLVESGGGLVQAGGSLRLSCAASGSIFRRNSMGWYRQAPGKERELVAAITRRGGSTYYADSVKGRFTISRDNAKNTVYLQMNSLKPEDTAVYYCAADPPDGFYYTWDYDYWGQGTQVTVSS | low polyreactivity |
| QVQLVESGGGLVQAGGSLRLSCAASGSIFRRNTMGWYRQAPGKERELVAAITFTGGRTYYADSVKGRFTISRDYAKNTVYLQMNSLKPEDTAVYYCNRVTAYYPTKFDYWGQGTQVNVSS | high polyreactivity |
| QVQLVESGGGLVQAGGSLRLSCAASGSIFRRTTQGGYRQAPGKERELVAAITYRGGSTYYADSVKGRFTISRDNAKNTVYFQMHSLKPEDTAVYYCARYHWYYPVSKSDSWGQGTQVTVSS | high polyreactivity |
| QVQLVESGGGLVQAGGSLRLSCAASGSIFRRYAMGWYGQAPGKERELVAAISWSGGSTYYADSVKGRFTISRDNAKNTVYLQMNSLKPEDTAVYYCAARHRQQKLDYWGQGTQVTVSS | high polyreactivity |
| QVQLVESGGGLVQAGGSLRLSCAASGSIFRRYAMGWYRQAPGKERELVAAISTRGGSTYYADSVKGRFTISRDNAKNTVYLQMNSLKPEDTAVYYCAVKGSGGPKYDYWGQGTQVTVAS | high polyreactivity |
| QVQLVESGGGLVQAGGSLRLSCAASGSIFRRYTMGWYRQAPRKERELVAAISRVGNTNYADSVKGRFTISRDNAKNTVYLQLNSLKPEDTAVYYCAARGIGYRYTPGLNYWGQGTQVTVSS | high polyreactivity |
| QVQLVESGGGLVQAGGSLRLSCAASGSIFRSYAMGWYRPAPGKERELVASITWRGGRTYYADSVKGRFTISRDNAKNTVYLQMNSLKPEDTAVYYCAVLWTPAGGYYFRYDYWGQGTQVTVSS | low polyreactivity |
| QVQLVESGGGLVQAGGSLRLSCAASGSIFRSYAMGWYRQAPGKEREFVAAIRNSSGRTYYADSVKGRFTISRDNAKNTVYLQMNSLKPEDTAVYYCAARLPRTYQGGKLYRLQYSWGQGTQVTVSS | high polyreactivity |
| QVQLVESGGGLVQAGGSLRLSCAASGSIFRSYAMGWYRQAPGKERELVAAITYSGGGTYYADSVKGRFTISRDNAKTTVYLQMNSLKPEDTAVYYCNAVGGIYDFDYWGQGTQVTVSS | high polyreactivity |
| QVQLVESGGGLVQAGGSLRLSCAASGSIFRSYAMGWYRQAPGKERELVAGISYSGGSTYYADSVKGRFTISRDNAKNTVYLQMNSLKPEDTAVYYCATVSYYDRYDYDYWGQGTQVTVSS | low polyreactivity |
| QVQLVESGGGLVQAGGSLRLSCAASGSIFRSYAMGWYRQAPGKERELVAGISYSGGSTYYADSVKGRFTISRDNAKNTVYLQMNSLKPEDTAVYYCNTRTGAFFLSKPYDYWGQGTQVTVSS | low polyreactivity |
| QVQLVESGGGLVQAGGSLRLSCAASGSIFRSYAMGWYRQAPGKERELVASISRRGGSTYYADSVKGRFTISRDNAKNTVYFQMNSLKPEDTAVYYCAAVRYNSRVSTTPSEMYYWGQGTLVTVSS | low polyreactivity |
| QVQLVESGGGLVQAGGSLRLSCAASGSIFRSYDMGMYRQAPGKERELVADITRTGGNTYYADSVKGRFTISRDNAKNTVYLQMNSLKPEDTAVYYCAATYILTVSVFSYVWPYDYWGQGTQVTVSS | high polyreactivity |
| QVQLVESGGGLVQAGGSLRLSCAASGSIFRSYTMGWYRQAPGKEREFVAAITKRGGSTYYADSVKGRFTISRDNAKNTVYLQMNSLKPEDTAVYYCAAVAGHYYYFRELGYWGQGTQVTVSS | high polyreactivity |
| QVQLVESGGGLVQAGGSLRLSCAASGSIFRSYVMGWSRQAPGKERELVAAISRRGVRTFYADSVKGRFTISRDNAKNTVYLQMNSLKPEDTAVYYCAAQPYKGTGYDYWGQGTQVTVSS | high polyreactivity |

Source: the nanobody polyreactivity screen of Harvey et al. (2022)
